# In paper PMC6879014, “Biophysical screening methods for extracellular domain peptide receptors, application to natriuretic peptide receptor C ligands” (Chemical Biology & Drug Design, 2018):
# Where a chain is given by its changes, count along the chain named. “And” between values parts separate entries of the source, which are not always exact repeats. Equal values may be shown once. Bridge positions count the residues as written; N and C are the ends. Ends that are not written are not given here. * marks the point of attachment. 5FAM = O=C1OC2(c3ccc(O)cc3Oc3cc(O)ccc32)c2ccc(C(=O)*)cc21
# T1: Human full‐length (FL) NPR‐C (27–541)‐10His‐Flag (Homo sapiens, UniProt P17342)
# T1 construct: Human full‐length (FL) NPR‐C (27–541)‐10His‐Flag; 10His (C); Flag (C); purchased Peak Proteins, UK
# T1 sequence (P17342 27-541): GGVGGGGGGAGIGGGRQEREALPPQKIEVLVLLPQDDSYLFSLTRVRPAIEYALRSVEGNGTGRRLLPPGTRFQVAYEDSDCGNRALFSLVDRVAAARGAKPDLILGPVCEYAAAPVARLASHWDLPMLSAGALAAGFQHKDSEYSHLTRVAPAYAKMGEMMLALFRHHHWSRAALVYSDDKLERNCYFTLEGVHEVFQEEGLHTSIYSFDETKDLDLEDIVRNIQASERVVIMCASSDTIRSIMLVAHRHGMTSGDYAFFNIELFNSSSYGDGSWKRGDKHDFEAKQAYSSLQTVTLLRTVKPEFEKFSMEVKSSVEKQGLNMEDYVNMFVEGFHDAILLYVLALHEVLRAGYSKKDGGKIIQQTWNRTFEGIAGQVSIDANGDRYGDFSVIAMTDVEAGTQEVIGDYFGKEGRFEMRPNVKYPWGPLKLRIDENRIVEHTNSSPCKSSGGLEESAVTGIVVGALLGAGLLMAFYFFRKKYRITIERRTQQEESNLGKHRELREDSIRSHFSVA
# T2: FL NPR‐C (Homo sapiens, UniProt P17342)
# T2 construct: Human full‐length (FL) NPR‐C (27–541)‐10His‐Flag; 10His (C); Flag (C); purchased Peak Proteins, UK
# T2 sequence (P17342 27-541): T1 sequence (P17342 27-541)
# T3: extracellular domain (ECD) NPR‐C (27–481)‐6His (Homo sapiens, UniProt P17342)
# T3 construct: extracellular domain (ECD) NPR‐C (27–481)‐6His; 6His (C); purchased Peak Proteins, UK
# T3 sequence (P17342 27-481): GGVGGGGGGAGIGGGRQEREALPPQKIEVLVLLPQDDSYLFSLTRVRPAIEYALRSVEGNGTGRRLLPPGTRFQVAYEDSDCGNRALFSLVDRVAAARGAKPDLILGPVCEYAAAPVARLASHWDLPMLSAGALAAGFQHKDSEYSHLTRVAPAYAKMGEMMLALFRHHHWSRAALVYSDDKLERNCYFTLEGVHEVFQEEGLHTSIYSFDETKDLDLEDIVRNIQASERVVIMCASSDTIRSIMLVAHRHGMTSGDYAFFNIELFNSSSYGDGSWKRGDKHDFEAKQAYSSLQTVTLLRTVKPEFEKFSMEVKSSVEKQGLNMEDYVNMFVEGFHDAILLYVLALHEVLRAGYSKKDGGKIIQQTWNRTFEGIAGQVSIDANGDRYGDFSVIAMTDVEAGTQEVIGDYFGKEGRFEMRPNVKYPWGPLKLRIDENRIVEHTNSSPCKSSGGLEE
# T4: Human full-length (FL) NPR-C (27–541)-10His-Flag (human, UniProt P17342-2 27-540)
# T4 construct: natriuretic peptide receptor C (NPR-C), human, residues 27-541; Primarily a disulphide-bonded dimer (~130 kDa) on non-reducing SDS-PAGE; The tag's end is read from the construct's name (27–541)-10His-Flag; also called natriuretic peptide receptor C; natriuretic peptide receptor type-C; source: expressed and isolated at Peak Proteins, UK; not shown: 10His, C-terminal, kept; Flag, C-terminal, kept
# T4 sequence (looked up): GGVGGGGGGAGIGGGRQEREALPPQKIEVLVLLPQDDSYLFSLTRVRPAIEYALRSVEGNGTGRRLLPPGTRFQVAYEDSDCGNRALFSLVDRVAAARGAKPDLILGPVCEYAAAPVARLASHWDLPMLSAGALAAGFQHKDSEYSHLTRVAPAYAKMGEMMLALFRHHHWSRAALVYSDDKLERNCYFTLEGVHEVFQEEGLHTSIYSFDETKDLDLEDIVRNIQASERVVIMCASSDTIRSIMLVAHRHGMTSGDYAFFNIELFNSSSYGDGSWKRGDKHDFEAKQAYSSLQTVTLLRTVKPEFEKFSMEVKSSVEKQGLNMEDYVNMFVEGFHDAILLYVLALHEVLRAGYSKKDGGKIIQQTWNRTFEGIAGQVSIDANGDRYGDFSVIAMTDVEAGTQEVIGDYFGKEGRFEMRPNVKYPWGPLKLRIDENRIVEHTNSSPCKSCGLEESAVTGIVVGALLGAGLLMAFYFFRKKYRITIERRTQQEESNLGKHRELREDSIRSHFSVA
# T5: extracellular domain (ECD) NPR-C (27–481)-6His (human, UniProt P17342-2 27-481)
# T5 construct: natriuretic peptide receptor C (NPR-C), human, extracellular domain, residues 27-481; Mainly monomer (~55 kDa) on non-reducing SDS-PAGE; the discussion says ~25% of the molecules are disulphide-bonded; The tag's end is read from the construct's name; also called (27–481)-6His (ECD); extracellular NPR-C; source: expressed and isolated at Peak Proteins, UK; not shown: 6His, C-terminal, kept
# T5 sequence (looked up): T3 sequence (P17342 27-481) with S450C, G452L, L453E, E455S
# B1: 5-carboxyfluorescein N-terminus labelled GLSKG[CFGRSLDRIGSLSGLGC]NS (Flu-P19) (peptide)
# peptide: 5FAM-GLSKGCFGRSLDRIGSLSGLGCNS
# modifications: not fully specified (bridges); cysteine pairing not given here
# notes: P19, a peptide identified by phage display (Deschênes et al., cited); also called Flu-P19 probe; source: synthetic peptide, bought: Peptide Protein Research Ltd, UK
# B2: C-type natriuretic peptide (ligand)
# chain: GLSKGCFGLKLDRIGSMSGLGC
# modifications: disulfide 6-22 (inferred)
# Key:
# [1] = target: T1, Human full‐length (FL) NPR‐C (27–541)‐10His‐Flag; experiment: Surface plasmon resonance, immobilized full‐length NPR‐C; assay type: binding; conditions: SPR, experimentally observed R max as percentage of theoretical R max (quality control), each table line a separate run
# NPR‐C = conditions: literature value in Table 2; read-out: K i, literature; cited from earlier work
# Text: Table 2 Summary of control peptide FP analyses | column: K i (competitive; nM)
# FL NPR‐C = target: T2, FL NPR‐C; experiment: Thermal shift assay (Protein Thermal Shift Dye Kit); assay type: binding; conditions: for ΔTm: FL NPR‐C 0.1 mg/ml, 1× dye, ramp 25–99°C, T m mean across four replicates
# Protocol: Thermal shift assays were performed using Thermo Fisher Scientific Protein Thermal Shift™ Dye Kit, and samples were prepared according to the accompanying protocol.17 A solution of Protein Thermal Shift™ Dye was always prepared fresh from the 1,000× stock. Optimization experiments were performed by titrating NPR‐C protein (0.1, 0.05 and 0.01 mg/ml) and Protein Thermal Shift™ Dye concentration (80, 8 and 1×) to identify conditions that achieved melt curves with the greatest dynamic fluorescence range and least standard error in T m (melt temperature) values. […] The total volume for each reaction was 20.0 μl. Each melt reaction was mixed at least 10 times, and the plate was sealed with MicroAmp® Optical Adhesive Film. The plate was then spun it at 112 g for 1 min and placed on ice until measurement. Thermal melt reactions were performed and analysed using a 7500 Real‐Time PCR System®. A 5‐carboxy‐X‐rhodamine (ROX) reporter and a continuous temperature ramp of 25–99°C were used (2 min per step). Optical filters were set at 580 nm (excitation) and 623 nm (emission). The T m for each sample was obtained by differentiating the original fluorescence melt curve using OriginPro mathematical and peak identification functions. The reported T m values are the mean across four replicates.
# [2] = target: T3, extracellular domain (ECD) NPR‐C (27–481)‐6His; experiment: Surface plasmon resonance, immobilized extracellular domain NPR‐C; assay type: binding; conditions: SPR, experimentally observed R max as percentage of theoretical R max (quality control), each table line a separate run
# [3] = target: T4, Human full-length (FL) NPR-C …; experiment: SPR; steady-state affinity analysis of Flu-P19 on immobilised FL NPR-C; conditions: both partners purified
# [4] = target: T5, extracellular domain (ECD) NPR-C …; experiment: fluorescence polarisation; competition against 15 nM Flu-P19 probe; FL NPR-C 150 nM or ECD NPR-C 400 nM; competitor 4.89 nM-2.5 uM; HEPES buffer, 3% DMSO; Ki computed from IC50 with a web-based converter; conditions: both partners purified
# [5] = target: T4, Human full-length (FL) NPR-C …; experiment: as above; conditions: both partners purified
# [6] = target: T4, Human full-length (FL) NPR-C …; experiment: as above; conditions: both partners purified; remark: listed apart in the source
# [7] = target: T4, Human full-length (FL) NPR-C …; experiment: thermal shift; Protein Thermal Shift Dye Kit; FL NPR-C 0.1 mg/ml, 1x dye; ligand at 1:1 or 10:1 ratio to the protein; ramp 25-99°C; Tm mean of four replicates; conditions: both partners purified
molecule,measurement,setting,value
C‐type natriuretic peptide [CNP],% theoretical R max,[1],31%
same,Ki,NPR‐C,0.023 nM
same,"ΔTm, approximate shift given in text","FL NPR‐C; FL NPR‐C, ratio not stated in the sentence (Figure 9c,d)",~ 11 °C
same,ΔTm,FL NPR‐C; NPRC + ligand (1:1),+8.2 °C
same,ΔTm,FL NPR‐C; NPRC + ligand (1:10),+11.7 °C
same,% theoretical R max,[2],51%
B1,Kd,[3],~10 nM
B2,Ki,[4],0.1 nM
same,IC50,[5],68.4 nM and 142 nM and 111 nM
same,Ki,[5],0.1 nM
same,IC50,[6],142 nM
same,Ki,[6],0.49 nM
same,ΔTm,[7],~11 °C
